B1: GS3938 (nucleic acid)
sense: AUCGGCAAAAGUAAUGCUUCAAAAGCUGAUACAAAGACUAUAUGGAGAGGAGCUUUAAAUAUAUUGGAAGACUUAAAAAACGCAGAAAAGGAUUGGAGAUUUGGGAAAACUGAAAUUGUAGGGUUUGACAUUGAGAGAGAGAACCAAAUAGAUUGCCCUCAAAGUGAUAUGGAAAUCUUGCAGCAACAGUCAAGCAACACUGCAAGCUAUGCCAAUAAUUUCACCUCCGACCUUACACCUGAAGGCCGCCCAACAGGAAAAGUUACGAAAGCUCGAUUUCAGUCUGCAGAAAUAGGAAAAUGUACUCAAGUUGGAUGGGGAGUCGUACACCUAUACCGUGAUGAUAACGAUGCUGUUAAUUUUGAUACCCGAACUACUACAUACGAUGGAAA
antisense: UUUCCAUCGUAUGUAGUAGUUCGGGUAUCAAAAUUAACAGCAUCGUUAUCAUCACGGUAUAGGUGUACGACUCCCCAUCCAACUUGAGUACAUUUUCCUAUUUCUGCAGACUGAAAUCGAGCUUUCGUAACUUUUCCUGUUGGGCGGCCUUCAGGUGUAAGGUCGGAGGUGAAAUUAUUGGCAUAGCUUGCAGUGUUGCUUGACUGUUGCUGCAAGAUUUCCAUAUCACUUUGAGGGCAAUCUAUUUGGUUCUCUCUCUCAAUGUCAAACCCUACAAUUUCAGUUUUCCCAAAUCUCCAAUCCUUUUCUGCGUUUUUUAAGUCUUCCAAUAUAUUUAAAGCUCCUCUCCAUAUAGUCUUUGUAUCAGCUUUUGAAGCAUUACUUUUGCCGAU
B2: GS3937 (nucleic acid)
sense: CAUCUCAACGACUUUGUAGAAUAAAUCAUAGUGAGAUACAGGACUGUGUAGAAAUGCCUCACCACAACAUAAAGAUAAGGCAAUUAAAUUAACUAGAUUGUCAAUCAAAAUAUCAAUAUUUUUUAAGCCCCUCAAGUCUGAUGUGUAUGUGGUGAGAAACCGAACAAGAGAAAGCAGUGAUCUAUAUAGUUCAGACCAGUGAUAUUUCAAUCGUGUCCGUGACCGAGAUAGGUAUGAUAAUAUACUAUAAAUGAUACCAAUGCAAAGAAUAUAUAAAUCAACAUCCAGUCGUCGUCUUAGAUUGUGAUUGAUUCCAUCAAGCAUCGCAUCAAGAAGAAUAGCAGCAAUCGAUCUAUCUCCAUGAACAUAAGGAAGGUACGGAGAUUUUUGUCGACAUA
antisense: UAUGUCGACAAAAAUCUCCGUACCUUCCUUAUGUUCAUGGAGAUAGAUCGAUUGCUGCUAUUCUUCUUGAUGCGAUGCUUGAUGGAAUCAAUCACAAUCUAAGACGACGACUGGAUGUUGAUUUAUAUAUUCUUUGCAUUGGUAUCAUUUAUAGUAUAUUAUCAUACCUAUCUCGGUCACGGACACGAUUGAAAUAUCACUGGUCUGAACUAUAUAGAUCACUGCUUUCUCUUGUUCGGUUUCUCACCACAUACACAUCAGACUUGAGGGGCUUAAAAAAUAUUGAUAUUUUGAUUGACAAUCUAGUUAAUUUAAUUGCCUUAUCUUUAUGUUGUGGUGAGGCAUUUCUACACAGUCCUGUAUCUCACUAUGAUUUAUUCUACAAAGUCGUUGAGAUG
B3: GS3934 (nucleic acid)
sense: UCUUCUUCAGUGGUAUGUGCAAGAGAUUGACGUCUAGAUGAACGUGUUGAUGGUGCAGUUACUACAGCAGUAGCUUCAACCGAUUUUCGACUCACUUUUCGCUUGUUUGAAACAGACGAAACUAAAGAAUUUGUGGAACUAGAUUUAGGUUUACGAGUAGUGGACCGUCCCUUACUUGUAUAGACUCUCUUUUUAAGUGUAGAAUCAUUCAAUGGCUGUAAAAAUGAAACUAAAUCUCCACAAAUAGUAGUAGGUGCAUCUGCUGAUAAUGCUUCAGGUAAAUCUAAUCUAGAUCCAAUUUCUGAUGUACUAAGUGAUAUAUUUGAAGAGGUAAUAUUACUUUGUAUUUCAGGUGUCUUUGAGGUCAUCUUUGAUGAAAUUACCAUUAGUUUUU
antisense: AAAAACUAAUGGUAAUUUCAUCAAAGAUGACCUCAAAGACACCUGAAAUACAAAGUAAUAUUACCUCUUCAAAUAUAUCACUUAGUACAUCAGAAAUUGGAUCUAGAUUAGAUUUACCUGAAGCAUUAUCAGCAGAUGCACCUACUACUAUUUGUGGAGAUUUAGUUUCAUUUUUACAGCCAUUGAAUGAUUCUACACUUAAAAAGAGAGUCUAUACAAGUAAGGGACGGUCCACUACUCGUAAACCUAAAUCUAGUUCCACAAAUUCUUUAGUUUCGUCUGUUUCAAACAAGCGAAAAGUGAGUCGAAAAUCGGUUGAAGCUACUGCUGUAGUAACUGCACCAUCAACACGUUCAUCUAGACGUCAAUCUCUUGCACAUACCACUGAAGAAGA
B4: GS3939 (nucleic acid)
sense: AAGAUUGAAAAUGGAACGCCUAGAACAGCACCUUUAAUUACAACACGAAGGACUCCGAAAAUGCUACGAUCUACUGUGUCAAAUUCCUCGCUUUCCUCACAACCAUCAAUGUCACCGCAUCAAUUUAUUGCUCUUGCCCGGGAAGCAAUGAAAAAUGCUUUGGAAGAGAACAAAUCAAAGGCAGCUGAGGCCAAAAGUGUUAGUAAUGAACUUAAGCCAGGGGUUACGAUCGAUUUUAGCAACAAACAAAUCCAACGAUUUCCUGAUGAAGUAAUUGAUAUAAUAAAGAAUGAGCUUGAAAGACUUGCGCUGUCACAUAAUCAAAUAUCUGUGUUUCCCUCAAGGUUUUCCGAAUGCAAAUCACUCCGAUACCUCAAUGUUAGAGAUAAUGUUAU
antisense: AUAACAUUAUCUCUAACAUUGAGGUAUCGGAGUGAUUUGCAUUCGGAAAACCUUGAGGGAAACACAGAUAUUUGAUUAUGUGACAGCGCAAGUCUUUCAAGCUCAUUCUUUAUUAUAUCAAUUACUUCAUCAGGAAAUCGUUGGAUUUGUUUGUUGCUAAAAUCGAUCGUAACCCCUGGCUUAAGUUCAUUACUAACACUUUUGGCCUCAGCUGCCUUUGAUUUGUUCUCUUCCAAAGCAUUUUUCAUUGCUUCCCGGGCAAGAGCAAUAAAUUGAUGCGGUGACAUUGAUGGUUGUGAGGAAAGCGAGGAAUUUGACACAGUAGAUCGUAGCAUUUUCGGAGUCCUUCGUGUUGUAAUUAAAGGUGCUGUUCUAGGCGUUCCAUUUUCAAUCUU
B5: GS1817: dsRNA trigger SEQ ID NO 139; gene target Cell division control protein 48 (nucleic acid)
DNA: GCTTCGCGAAAGTAAGGTGCAAGGAAAACATCAAAGAGGGAACCAGTAAGGCCTTCAACAGTATCTGCGATAGGAAGAACTGCGATACGTTTGGCGTATTTTATATCAGGACATGGATGTACTGTAACAATATCACCATGTTTAACCCTAAGGTTGTGTCGGACAACACGATTCATACGAGCACTCCCGTCATCTAAATCATCATCTGCGAGTACAATTAAAACAGTATCCTTTCGCTTCTTCCCCTTAACTAGGACAGTATCTCCACGAAAAAGCTGCAAAGTTTCCATGGTATTATTTGACAGTGCAATAACAGAGTTATCATCGTTGATGGCATCTGTTACAATTAAGGAATTTGGCTTTTTCTTCTTTTTTAAAATAGCAGTCGCAGTAGCATCAATCGTCTTTTGTTCAGCGCCAGAGGCATCCTCAAGTTTAACTGTTTTTTTACGAGTAGCATTGTCTTCAGACATAGTTGTGTAATAAAAGTTAAGAGGGCGTAATTTCCTAGAAAGAATATATCTACTATTAATTTATTGAGATCTTGGAATGAAGGTTTATCCGATAAAATCTGTAAATGATGGAGCTAATCTGAAG
B6: GS1819: dsRNA trigger SEQ ID NO 209; gene target Putative ATP-dependent RNA helicase PB1A10.06c (nucleic acid)
DNA: CTGGTGCCCTTAACTTGATGGTAAGATTATTCGGCAGAGTTTTTACCATTTGAATATTTGGTATTGATTTATATCCTTGAGCCTCATTTATTTGCTGGATAGCCCAAGCCTTAAACGCAGATCTTTCTTTTCTAGGCGTATTCTCAATTTCATCGCAATCATCAGAACTTTCATTCTCATCACGGCTACTTTCTTTACTGCTATCTGACTCGTAATCAGATAAATTTGGTCCAATTTTATCTCCAACGTCTTCTGAGGAATTTGTCATGTTTCCTATGGTATCACGCTGGATTGACATACTTGAATCTGAGTTTATACCTTCCCATTCTGATTCATCATCGGTGACAGGCTTGCGAATATCAAGAGAAAATTTAGATACAATGCCGCCTCGTCGTTTTCTTTTCCCCAGAATAGGAATTCCCTCCTTACTTATTTCGAGTGGCTTTTTTTAATCCAGCTCCCACAGTTATATCTGTTTGCTTCTGAGTAGTAAGTACTGAAGCTTTAGAGGTCTCATCGATATTATCGTCACATGGAGATATTCTCAGATCATCATTGGTTACAGTACTCTCATCGGAATTGAATTGATTTTCGTT
B7: GS3935 (nucleic acid)
sense: CACCGCAGGAAACAACACGAGUAAAAUCAUUUUCUUCAACAACAUCUUCUGCAGCAAAAAAAUUUUCUCGUGCACUCUUAUGGCGGUCAAUUUGUAGAGAUUGCUCAUCGAAGACAAUCUGACCAUCAACGAUGCGAAUUUUAGGACCAACCGGAGGAGCAGACGGCGGUGCGAUUUGGCUAUUUAAACUUGGCUCAGUCUUUCUACUUUCAUUUAGGGUAUAAUUGUCACCACUUUUUCCAUCUAUAUAAUCUUCAAGUUCAGGGUUAUCUCGCUUCAUCCUAGCUUUGAUAGCAUUUUGUUUCAUUCGUGCAAGUCGUCCCAUUAUCUCAUCGUGGUUUCUAGACUUUUUACCAAUACGAAGAUCAUGACAUAAGUCUUGCAUGGUAAUAACAGAA
antisense: UUCUGUUAUUACCAUGCAAGACUUAUGUCAUGAUCUUCGUAUUGGUAAAAAGUCUAGAAACCACGAUGAGAUAAUGGGACGACUUGCACGAAUGAAACAAAAUGCUAUCAAAGCUAGGAUGAAGCGAGAUAACCCUGAACUUGAAGAUUAUAUAGAUGGAAAAAGUGGUGACAAUUAUACCCUAAAUGAAAGUAGAAAGACUGAGCCAAGUUUAAAUAGCCAAAUCGCACCGCCGUCUGCUCCUCCGGUUGGUCCUAAAAUUCGCAUCGUUGAUGGUCAGAUUGUCUUCGAUGAGCAAUCUCUACAAAUUGACCGCCAUAAGAGUGCACGAGAAAAUUUUUUUGCUGCAGAAGAUGUUGUUGAAGAAAAUGAUUUUACUCGUGUUGUUUCCUGCGGUG

System: E. necator
Assay: Leaf disc assay, dry inoculum (settling tower), decrease in disease severity / hyphal growth (Example 2)
Details: decrease in disease severity (hyphal growth) relative to untreated control, value ± SE; for % decrease =/− SE TP1: time point 1 (untreated control hyphal growth ≥50%); for % decrease =/− SE TP2: time point 2

Row | Molecule | % decrease =/− SE TP1 | % decrease =/− SE TP2
1 | B1 | 3 ± 5% | 
2 | B2 | 12 ± 5% | 
3 | B3 | 31 ± 5% | 17 ± 6%
4 | B4 | 4 ± 5% | 
5 | B5 | 52 ± 2% | 49 ± 6%
6 | B6 | 12 ± 6% | 8 ± 9%
7 | B7 | 1 ± 5% | 
